In patent US20200199204A1:

Tests used:
Test in all cases: cell-based or functional assay
[1] = target: HIV-1 Env of 6535.3 (HIV-1)
[2] = target: HIV-1 Env of CAP256.SU (HIV-1)
[3] = target: HIV-1 Env of RHPA.7 (HIV-1)
[4] = target: HIV-1 Env of CNE3 (HIV-1)
[5] = target: HIV-1 Env of Q842.d12 (HIV-1)
[6] = target: HIV-1 Env of DU422.01 (HIV-1)
[7] = target: HIV-1 Env of 96ZM651.02 (HIV-1)
[8] = target: HIV-1 Env of CAP256.PI (HIV-1)
[9] = target: HIV-1 Env of TH976.17 (HIV-1)
[10] = target: HIV-1 Env of C1080.c3 (HIV-1)
[11] = target: HIV-1 Env of TRJO.58 (HIV-1)
[12] = target: HIV-1 Env of KER2018.11 (HIV-1)
[13] = target: HIV-1 Env of DU156.12 (HIV-1)
[14] = target: HIV-1 Env of ZM197.7 (HIV-1)
[15] = target: HIV-1 Env of RW020.2 (HIV-1)
[16] = target: HIV-1 Env of Q23.17 (HIV-1)
[17] = target: HIV-1 Env of Q769.d22 (HIV-1)
[18] = target: HIV-1 Env of ZM249.1 (HIV-1)
[19] = target: HIV-1 Env of ZM109.4 (HIV-1)
[20] = target: HIV-1 Env of AC10.29 (HIV-1)
[21] = target: HIV-1 Env of Q168.a2 (HIV-1)
[22] = target: HIV-1 Env of CAP244.D3 (HIV-1)
[23] = target: HIV-1 Env of UG037.8 (HIV-1)
[24] = target: HIV-1 Env of MB201 (HIV-1)
[25] = target: HIV-1 Env of MB539.2B7 (HIV-1)
[26] = target: HIV-1 Env of TRO.11 (HIV-1)
[27] = target: HIV-1 Env of 191821.E6.1 (HIV-1)
[28] = target: HIV-1 Env of BG505.w6m (HIV-1)
[29] = target: HIV-1 Env of DU172.17 (HIV-1)
[30] = target: HIV-1 Env of SC422.8 (HIV-1)
[31] = target: HIV-1 Env of CAP45.G3 (HIV-1)
[32] = target: HIV-1 Env of KER2008.12 (HIV-1)
[33] = target: HIV-1 Env of REJO.67 (HIV-1)
[34] = target: HIV-1 Env of 6405.v4.c34 (HIV-1)
[35] = target: HIV-1 Env of CAAN.A2 (HIV-1)
[36] = target: HIV-1 Env of Q461.e2 (HIV-1)
[37] = target: HIV-1 Env of WITO.33 (HIV-1)
[38] = target: HIV-1 Env of ZM135.10a (HIV-1)
[39] = target: HIV-1 Env of QH0692.42 (HIV-1)
[40] = target: HIV-1 Env of CAP210.E8 (HIV-1)
[41] = target: HIV-1 Env of CM244.ec1 (HIV-1)
[42] = target: HIV-1 Env of 3016.V5.c36 (HIV-1)
[43] = target: HIV-1 Env of ZM233.6 (HIV-1)
[44] = target: HIV-1 Env of ZM53.12 (HIV-1)
[45] = target: HIV-1 Env of THRO.18 (HIV-1)
[46] = target: HIV-1 Env of PVO.04 (HIV-1)
[47] = target: HIV-1 Env of ZM214.15 (HIV-1)
[48] = target: HIV-1 Env of 0260.v5.c36 (HIV-1)
[49] = target: HIV-1 Env of Q259.d2.17 (HIV-1)
[50] = target: Env of SIVmac251.30 (SIV (SIVmac251))

## CAP256-VRC26.22 (antibody)
[1]
  IC50: > 50 µg/mL
[2]
  IC50: 0.002 µg/mL
[3]
  IC50: > 50 µg/mL
[4]
  IC50 (neutralization, TZM-bl): > 50 µg/mL
[5]
  IC50: 0.63 µg/mL
[6]
  IC50: 0.012 µg/mL
[7]
  IC50: > 50 µg/mL
[8]
  IC50: > 50 µg/mL
[9]
  IC50 (neutralization, TZM-bl): > 50 µg/mL
[10]
  IC50: 0.013 µg/mL
[11]
  IC50: > 50 µg/mL
[12]
  IC50: 0.002 µg/mL
[13]
  IC50: 0.15 µg/mL
[14]
  IC50: 0.09 µg/mL
[15]
  IC50: > 50 µg/mL
[16]
  IC50: 0.006 µg/mL
[17]
  IC50: > 50 µg/mL
[18]
  IC50: 0.13 µg/mL
[19]
  IC50: > 50 µg/mL
[20]
  IC50: > 50 µg/mL
[21]
  IC50: 0.007 µg/mL
[22]
  IC50: > 50 µg/mL
[23]
  IC50: > 50 µg/mL
[24]
  IC50: > 50 µg/mL
[25]
  IC50: 17.9 µg/mL
[26]
  IC50: > 50 µg/mL
[27]
  IC50: 2.12 µg/mL
[28]
  IC50: 0.035 µg/mL
[29]
  IC50: > 50 µg/mL
[30]
  IC50: > 50 µg/mL
[31]
  IC50: 1.4 µg/mL
[32]
  IC50: 1.23 µg/mL
[33]
  IC50: > 50 µg/mL
[34]
  IC50: > 50 µg/mL
[35]
  IC50: > 50 µg/mL
[36]
  IC50: 4.1 µg/mL
[37]
  IC50: > 50 µg/mL
[38]
  IC50: > 50 µg/mL
[39]
  IC50: > 50 µg/mL
[40]
  IC50: 0.003 µg/mL
[41]
  IC50: 4.54 µg/mL
[42]
  IC50: 0.022 µg/mL
[43]
  IC50: 0.001 µg/mL
[44]
  IC50: 0.002 µg/mL
[45]
  IC50: > 50 µg/mL
[46]
  IC50: 9.03 µg/mL
[47]
  IC50: > 50 µg/mL
[48]
  IC50: > 50 µg/mL
[49]
  IC50: 0.005 µg/mL

## CAP256-VRC26.23 (antibody)
[1]
  IC50: > 50 µg/mL
[2]
  IC50: 0.019 µg/mL
[3]
  IC50: > 50 µg/mL
[4]
  IC50 (neutralization, TZM-bl): > 50 µg/mL
[5]
  IC50: > 50 µg/mL
[6]
  IC50: > 50 µg/mL
[7]
  IC50: > 50 µg/mL
[8]
  IC50: > 50 µg/mL
[9]
  IC50 (neutralization, TZM-bl): > 50 µg/mL
[10]
  IC50: > 50 µg/mL
[11]
  IC50: > 50 µg/mL
[12]
  IC50: 10 µg/mL
[13]
  IC50: > 50 µg/mL
[14]
  IC50: > 50 µg/mL
[15]
  IC50: > 50 µg/mL
[16]
  IC50: > 50 µg/mL
[17]
  IC50: > 50 µg/mL
[18]
  IC50: > 50 µg/mL
[19]
  IC50: > 50 µg/mL
[20]
  IC50: > 50 µg/mL
[21]
  IC50: > 50 µg/mL
[22]
  IC50: > 50 µg/mL
[23]
  IC50: > 50 µg/mL
[24]
  IC50: > 50 µg/mL
[25]
  IC50: > 50 µg/mL
[26]
  IC50: > 50 µg/mL
[27]
  IC50: > 50 µg/mL
[28]
  IC50: > 50 µg/mL
[29]
  IC50: > 50 µg/mL
[30]
  IC50: > 50 µg/mL
[31]
  IC50: > 50 µg/mL
[32]
  IC50: > 50 µg/mL
[33]
  IC50: > 50 µg/mL
[34]
  IC50: > 50 µg/mL
[35]
  IC50: > 50 µg/mL
[36]
  IC50: > 50 µg/mL
[37]
  IC50: > 50 µg/mL
[38]
  IC50: > 50 µg/mL
[39]
  IC50: > 50 µg/mL
[40]
  IC50: 0.019 µg/mL
[41]
  IC50: > 50 µg/mL
[42]
  IC50: > 50 µg/mL
[43]
  IC50: > 50 µg/mL
[44]
  IC50: 0.028 µg/mL
[45]
  IC50: > 50 µg/mL
[46]
  IC50: > 50 µg/mL
[47]
  IC50: > 50 µg/mL
[48]
  IC50: > 50 µg/mL
[49]
  IC50: > 50 µg/mL

## CAP256-VRC26.24 (antibody)
[1]
  IC50: > 50 µg/mL
[50]
  IC50 (neutralization, TZM-bl): > 50 µg/mL
[2]
  IC50: 0.04 µg/mL
[3]
  IC50: > 50 µg/mL
[4]
  IC50 (neutralization, TZM-bl): > 50 µg/mL
[5]
  IC50: > 50 µg/mL
[6]
  IC50: 21.6 µg/mL
[7]
  IC50: > 50 µg/mL
[8]
  IC50: > 50 µg/mL
[9]
  IC50 (neutralization, TZM-bl): > 50 µg/mL
[10]
  IC50: 17.4 µg/mL
[11]
  IC50: > 50 µg/mL
[12]
  IC50: 1.1 µg/mL
[13]
  IC50: 10.8 µg/mL
[14]
  IC50: 12.6 µg/mL
[15]
  IC50: > 50 µg/mL
[16]
  IC50: 5.92 µg/mL
[17]
  IC50: > 50 µg/mL
[18]
  IC50: 13.6 µg/mL
[19]
  IC50: 16.5 µg/mL
[20]
  IC50: > 50 µg/mL
[21]
  IC50: 3.41 µg/mL
[22]
  IC50: > 50 µg/mL
[23]
  IC50: > 50 µg/mL
[24]
  IC50: > 50 µg/mL
[25]
  IC50: > 50 µg/mL
[26]
  IC50: > 50 µg/mL
[28]
  IC50: 5.63 µg/mL
[29]
  IC50: > 50 µg/mL
[30]
  IC50: > 50 µg/mL
[31]
  IC50: 0.672 µg/mL
[32]
  IC50: > 50 µg/mL
[33]
  IC50: > 50 µg/mL
[34]
  IC50: > 50 µg/mL
[35]
  IC50: > 50 µg/mL
[36]
  IC50: > 50 µg/mL
[37]
  IC50: > 50 µg/mL
[38]
  IC50: > 50 µg/mL
[39]
  IC50: > 50 µg/mL
[40]
  IC50: 0.23 µg/mL
[41]
  IC50: > 50 µg/mL
[42]
  IC50: 2.12 µg/mL
[43]
  IC50: 1.67 µg/mL
[44]
  IC50: 0.047 µg/mL
[45]
  IC50: > 50 µg/mL
[46]
  IC50: > 50 µg/mL
[47]
  IC50: 32 µg/mL
[48]
  IC50: > 50 µg/mL
[49]
  IC50: 31.1 µg/mL
